Data reported in patent US20190015361A1 (published 2019).
One block for each binder: values may come before it.

What was measured:
Aβ42 (t=24 days) [1] = biological target: T1, Aβ42 (t=24 days) (human, UniProt P05067 672-713); assay: SPRi, Aβ forms spotted on chip, ovalbumin injected
T1 construct: domain: Aβ42 (residues 1-42 of the Aβ peptide); enriched in high-MW oligomers by CE; also called Aβ42 high-MW oligomers

Aβ40 (t=0 days) = biological target: T2, Aβ40 (t=0 days) (UniProt P05067 672-711); assay: SPRi, Aβ forms spotted on chip, ovalbumin injected
T2 construct: domain: Aβ40; Dissolved in PBS and spotted at 20 µM on the SPRi chip immediately after solubilization; mainly low-MW oligomers by CE; also called Aβ40 low-MW oligomers; Aβ40 solubilized in PBS

Aβ42 (t=0 days) = biological target: T3, Aβ42 (t=0 days) (human, UniProt P05067 672-713); assay: SPRi, Aβ forms spotted on chip, ovalbumin injected
T3 construct: domain: Aβ42 (residues 1-42 of the Aβ peptide); HFIP / CH3CN-Na2CO3-NaOH preparation, diluted to 20 µM in phosphate buffer and spotted on the SPRi chip immediately; mainly low-MW oligomers by CE; also called Aβ42 low-MW oligomers

Aβ42 (t=24 days) [2] = biological target: T1, Aβ42 (t=24 days); assay: SPRi, Aβ spotted on chip at 20 µM, LL-37 injected 1-100 µM, nonlinear fit of response at equilibrium

T1 sequence (P05067 672-713 limits assumed): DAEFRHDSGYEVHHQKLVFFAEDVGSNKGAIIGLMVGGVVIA
T3 sequence (P05067 672-713 limits assumed): as above
T2 sequence (P05067 672-711 limits assumed): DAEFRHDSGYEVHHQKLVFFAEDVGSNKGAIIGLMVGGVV

binding result (Aβ42 (t=24 days) [1]): no binding (tested: 10 µM) | binding result (Aβ40 (t=0 days)): no binding (tested: 10 µM) | binding result (Aβ42 (t=0 days)): no binding (tested: 10 µM)
B1: Ovalbumin (Sigma-Aldrich, A5503) (other, UniProt P01012 2-386, looked up)
chain: GSIGAASMEFCFDVFKELKVHHANENIFYCPIAIMSALAMVYLGAKDSTRTQINKVVRFDKLPGFGDSIEAQCGTSVNVHSSLRDILNQITKPNDVYSFSLASRLYAEERYPILPEYLQCVKELYRGGLEPINFQTAADQARELINSWVESQTNGIIRNVLQPSSVDSQTAMVLVNAIVFKGLWEKAFKDEDTQAMPFRVTEQESKPVQMMYQIGLFRVASMASEKMKILELPFASGTMSMLVLLPDEVSGLEQLESIINFEKLTEWTSSNVMEERKIKVYLPRMKMEEKYNLTSVLMAMGITDVFSSSANLSGISSAESLKISQAVHAAHAEINEAGREVVGSAEAGVDAASVSEEFRADHPFLFCIKHIATNAVLFFGRCVSP
notes: Negative control analyte in SPRi, injected at 10 µM; also called non-correlated protein; negative control sample

Ka (Aβ42 (t=24 days) [2]): 49200 M⁻¹ | Kd (Aβ42 (t=24 days) [2]): 20.3 µM
B2: human cathelicidin peptide LL-37 (peptide, UniProt P49913 134-170, looked up)
peptide: LLGDFFRKSKEKIGKEFKRIVQRIKDFLRNLVPRTES
notes: range 134-170; Synthetic peptide; from Innovagen for SPRi/TEM/CD, from AnaSpec for the cell culture work; also called cathelicidin LL-37
